In article PMC10182306:

Molecular target: human platelet actin (human) (UniProt P60709)
Experiment: co-sedimentation

## α-actinin (from UniProt P12814 1-892) (natural protein)
  percent of input pelleted with F-actin: 77%
